The chains are these.
B4: Fc protein K392D/K409D/D399K (other)
chain: GSGGGDKTHTCPPCPAPELLGGPSVFLFPPKPKDTLMISRTPEVTCVVVDVSHENPEVKFNWYVDGVEVHNAKTKPREEQYNSTYRVVSVLTVLHQDWLNGKEYKCKVSNKALPAPIEKTISKAKGQPREPQVYTLPPSREEMTKNQVSLTCLVKGFYPSDIAVEWESNGQPENNYDTTPPVLKSDGSFFLYSDLTVDKSRWQQGNVFSCSVMHEALHNHYTQKSLSLSPGK
notes: Monomer chain; EU numbering is K392D/K409D/D399K; also called Fc-mix1; Fc of mutation combinations 1, 5 and 6

Series [1] concerns the molecule itself. Kind of series: co-transfection 1:1 in 293H, protein A pull-down, non-reducing SDS-PAGE densitometry; co-expressed with ScFv-Fc WT. Here is the method: (§1) The expression vectors harbor 8 mutation combinations in step 3 were separately transfected with PEI into suspension adapted 293H cells (ATCC CRL-1573), the co-transfection ratio of plasmids pcDNA3.1-zeo-ScFv-Fc to pcMVβ-SP-Fc was 1:1, and after 3-4 days, cell culture supernatant was collected. Immuno precipitation was performed with protein A agarose resin, and the content of the homodimer proteins or antibodies (ScFv-Fc/ScFv-Fc and Fc/Fc) and the heterodimer protein or antibody (ScFv-Fc/Fc) was detected by SDS-PAGE under non-reducing conditions. Gel-Pro professional image analysis software (Media Cybernetics company) was used for analyzing the proportion of the homodimer proteins or antibodies (ScFv-Fc/ScFv-Fc and Fc/Fc) and the heterodimer protein or antibody (ScFv-Fc/Fc). […] In addition, when E357K/K370E/K392D/K409D/D399K (mutation combination 4) was introduced on Fc, the stability should be further investigated because of the appearance of Fc monomers (about 6%).

The target in series [2] is B4. The series is described as follows: co-transfection 1:1 in 293H, protein A pull-down, non-reducing SDS-PAGE densitometry. Here is the method:
as §1

Series [3] concerns the molecule itself. Kind of series: co-transfection 1:1 in 293H, protein A pull-down, non-reducing SDS-PAGE densitometry; co-expressed with Fc K392D/K409D/D399K. Here is the method:
as §1

B1: Fc protein E357K/K370E (other)
chain: GSGGGDKTHTCPPCPAPELLGGPSVFLFPPKPKDTLMISRTPEVTCVVVDVSHENPEVKFNWYVDGVEVHNAKTKPREEQYNSTYRVVSVLTVLHQDWLNGKEYKCKVSNKALPAPIEKTISKAKGQPREPQVYTLPPSREKMTKNQVSLTCLVEGFYPSDIAVEWESNGQPENNYKTTPPVLDSDGSFFLYSKLTVDKSRWQQGNVFSCSVMHEALHNHYTQKSLSLSPGK
notes: Monomer chain; also called Fc of mutation combination 3
For B1, the “proportion of Fc homodimer on SDS-PAGE” value in series [1] came to 47.5%.

B2: Fc protein E356K/K439E (other)
chain: GSGGGDKTHTCPPCPAPELLGGPSVFLFPPKPKDTLMISRTPEVTCVVVDVSHENPEVKFNWYVDGVEVHNAKTKPREEQYNSTYRVVSVLTVLHQDWLNGKEYKCKVSNKALPAPIEKTISKAKGQPREPQVYTLPPSRKEMTKNQVSLTCLVKGFYPSDIAVEWESNGQPENNYKTTPPVLDSDGSFFLYSKLTVDKSRWQQGNVFSCSVMHEALHNHYTQESLSLSPGK
notes: Monomer chain; also called Fc of mutation combination 2
In the case of B2, the “proportion of Fc homodimer on SDS-PAGE” value in series [1] worked out at 41.1%.

B3: Fc protein E357K/K370E/K392D/K409D/D399K (other)
chain: GSGGGDKTHTCPPCPAPELLGGPSVFLFPPKPKDTLMISRTPEVTCVVVDVSHENPEVKFNWYVDGVEVHNAKTKPREEQYNSTYRVVSVLTVLHQDWLNGKEYKCKVSNKALPAPIEKTISKAKGQPREPQVYTLPPSREKMTKNQVSLTCLVEGFYPSDIAVEWESNGQPENNYDTTPPVLKSDGSFFLYSDLTVDKSRWQQGNVFSCSVMHEALHNHYTQKSLSLSPGK
notes: Monomer chain; also called Fc-mix13; Fc of mutation combination 4
With B3, in series [1], the “proportion of Fc homodimer on SDS-PAGE” value was 28.7%.
As to B4, the “proportion of Fc homodimer on SDS-PAGE” value in series [1] amounted to 51.3%.

B5: Fc protein K392D/D399K (other)
chain: GSGGGDKTHTCPPCPAPELLGGPSVFLFPPKPKDTLMISRTPEVTCVVVDVSHENPEVKFNWYVDGVEVHNAKTKPREEQYNSTYRVVSVLTVLHQDWLNGKEYKCKVSNKALPAPIEKTISKAKGQPREPQVYTLPPSREEMTKNQVSLTCLVKGFYPSDIAVEWESNGQPENNYDTTPPVLKSDGSFFLYSKLTVDKSRWQQGNVFSCSVMHEALHNHYTQKSLSLSPGK
notes: Monomer chain; also called Fc of mutation combination 7
On to B5, for which, in series [1], the “proportion of Fc homodimer on SDS-PAGE” value stood at 44.7%.

B6: Fc protein D399K/K409D (other)
chain: GSGGGDKTHTCPPCPAPELLGGPSVFLFPPKPKDTLMISRTPEVTCVVVDVSHENPEVKFNWYVDGVEVHNAKTKPREEQYNSTYRVVSVLTVLHQDWLNGKEYKCKVSNKALPAPIEKTISKAKGQPREPQVYTLPPSREEMTKNQVSLTCLVKGFYPSDIAVEWESNGQPENNYKTTPPVLKSDGSFFLYSDLTVDKSRWQQGNVFSCSVMHEALHNHYTQKSLSLSPGK
notes: Monomer chain; also called Fc of mutation combination 8
For B6, the “proportion of Fc homodimer on SDS-PAGE” value in series [1] came out at 43.4%.

B7: ScFv-Fc protein E356K/K439E (Fc fusion)
chain: EVQLLESGGGVVQPGRSLRLSCIASGFTFSSYPMTWVRQAPGKGLEWVASISYDGSYKYKADSMKGRLTISRDNSKNTLYLEMNSLTAEDTAVYYCARTAFFNAYDFWGQGTLVTVSSASTKGPSVGGGGSGGGGSEIVMTQSPATLSVSPGERATLSCRASQSVRSNLAWYQQKPGQAPRLLIYAASTRATGIPARFSGSGSGTEFTLTISSLQSEDFAVYYCQQYNEWFRTSGQGTKVEIKRDKTHTCPPCPAPELLGGPSVFLFPPKPKDTLMISRTPEVTCVVVDVSHENPEVKFNWYVDGVEVHNAKTKPREEQYNSTYRVVSVLTVLHQDWLNGKEYKCKVSNKALPAPIEKTISKAKGQPREPQVYTLPPSRKEMTKNQVSLTCLVKGFYPSDIAVEWESNGQPENNYKTTPPVLDSDGSFFLYSKLTVDKSRWQQGNVFSCSVMHEALHNHYTQESLSLSPGK
notes: Monomer chain; also called scFv-Fcmix1; ScFv-Fc of mutation combination 6
Consider B7, for which, in series [2], the “proportion of ScFv-Fc/Fc heterodimer on SDS-PAGE” value was 8.4%. In series [3], the “proportion of ScFv-Fc homodimer on SDS-PAGE” value stood at 31.2%.

B8: ScFv-Fc protein E357K/K370E (Fc fusion)
chain: EVQLLESGGGVVQPGRSLRLSCIASGFTFSSYPMTWVRQAPGKGLEWVASISYDGSYKYKADSMKGRLTISRDNSKNTLYLEMNSLTAEDTAVYYCARTAFFNAYDFWGQGTLVTVSSASTKGPSVGGGGSGGGGSEIVMTQSPATLSVSPGERATLSCRASQSVRSNLAWYQQKPGQAPRLLIYAASTRATGIPARFSGSGSGTEFTLTISSLQSEDFAVYYCQQYNEWFRTSGQGTKVEIKRDKTHTCPPCPAPELLGGPSVFLFPPKPKDTLMISRTPEVTCVVVDVSHENPEVKFNWYVDGVEVHNAKTKPREEQYNSTYRVVSVLTVLHQDWLNGKEYKCKVSNKALPAPIEKTISKAKGQPREPQVYTLPPSREKMTKNQVSLTCLVEGFYPSDIAVEWESNGQPENNYKTTPPVLDSDGSFFLYSKLTVDKSRWQQGNVFSCSVMHEALHNHYTQKSLSLSPGK
notes: Monomer chain; also called ScFv-Fc of mutation combination 5
Regarding B8, the “proportion of ScFv-Fc/Fc heterodimer on SDS-PAGE” value in series [2] was determined as 5.9%. For the same molecule, the “proportion of ScFv-Fc homodimer on SDS-PAGE” value in series [3] turned out to be 41.5%.

For the origin of these results see patent publication US20150274807A1 (SUZHOU ALPHAMAB, published 2015).
